Measurements taken from the DeepSol protein solubility set.

Experiment: soluble on expression in E. coli; label from the status in PepcDB or PDB records

Row | Sequence | soluble on expression in E. coli
1 | MKLAKLIPKRFFIRSKDRSTVSKSPTAFSFGSASSSSGQDCKNSGGDGGGGSVTPTSILPEVPSPYSYVEILQAFKLIDRDNDGAVSRHDLESLLSRLGPDPLTEEEINVMLKEVDCDGDGTIRLEELASRVVSLDPARDSTELKETFEFFDADRDGLISADELLRVFSTIGDERCTLDDCKRMIADVDEDGDGFVCFTEFSRMMDLQR | soluble
2 | MGSDKIHHHHHHASCEDDEVEYAPLAVTRVSTVLDREQGIDQANLAQYIIVQGTGLNAVNSILVNDVQVDLKDAYITSGEITFPIPRVIPGEINNLITLGSGNSTVTAPISVFIPELEVNGMFNEFTPAGDTMKVVGDYFDLYEITTESGQLFFGGKEVKITKSTGNSLSFVLPEDAVMGSKIKLVSPVCGEVTVPGKYMEKGNMLCDFDPFTGWGGSKYVIDGPVPAPYSGYFSRFKINKGDANDWDWNEVTTIAQCAVEYSPEVIADQNKYLLKFEVNTIKPLTKRQIRFYFSQINYDWEPFASGLALNTNGEWKTVSIDLGEMWKGDIPNDGVLQIMGNSWAEDTDICFDNFRIVPKD | not soluble
3 | NGWVWKLGMNLTHYKNKVTELPLKDMPQSGVNKLQVGRSVYDFYMKEWAGVDPDNGNPLWYMDEKDANDNLTGKRVTTSDYASANYYYVNKSSLPKVYGGFNTSLSWKGFDLSAIFAYSIGGYIYNRDITMILHNGSLEGRDWSTEILKRWTPENRYTDVPALSTTSNNWNSASTRFLQNNSYMRLKNLTLSYDLPKQWISKLALSSVQVFVQGDNLFTIHRNQGLDPEQGITGITYYRYPAMRTISGGINLSF | not soluble
4 | MNINTDIFKIQSNNVMPSRGKILISEPFLHDVTFGRSVVLLVDHTEEGSMGLIINKPLPLMLNDIIKEFKYIEDIPLHKGGPIGTDTLFYLHTLHEIPGTLPINNGLYLNGDFDAIKKYILQGNPIKGKIRFFLGYSGWECEQLIQEIKENTWIISKEENTYLMNEDIKGMWKEALGKLGSKYETWSRFPQVPSLNLEHHHHHH | not soluble
5 | SAGINYVQNYNGNLGDFTYDESAGTFSMYWEDGVSSDFVVGLGWTTGSSNAITYSAEYSASGSASYLAVYGWVNYPQAEYYIVEDYGDYNPCSSATSLGTVYSDGSTYQVCTDTRTNEPSITGTSTFTQYFSVRESTRTSGTVTVANHFNFWAHHGFGNSDFNYQVVAVEAWSGAGSASVTISS | soluble
6 | MSKKQSSTPHDALFKLFLRQPETARDFLAFHLPAPIHALCDMKTLKLESRSFIDDDLRESYSDVLWSVKTEQGPGYIYCLIEHQSTSNKLIAFRMMRYAIAAMQNHLDAGYKTLPMVVPLLFYHGIESPYPYSLCWLDCFADPKLARQLYASAFPLIDVTVMPDDEIMQHRRMALLELIQKHIRQRDLMGLVEQMACLLSSGYANDRQIKGLFNYILQTGDAVRFNDFIDGVAERSPKHKESLMTIAERLRQEGEQSKALHIAKIMLESGVPLADIMRFTGLSEEELAAASRLAP | not soluble
7 | MDSTMSEHADVLIVGGGPVGALAALRLARQGRSVLLLEARAKDAEVRDARALALSWHSRRLLEEAGAWPADLPATAIDTVHVSQQGGCGRTRLDSADLGLPHLGAVVDYPALVAGLGGALEAAGVQVIWQCRVTAVKSLSQYACAEVETPQGKQLLTGSLLVLAEGGALAETLPGIRRLTHDYRQCALLAEVETELPPQGVAYERFAHAGPFALLPHGERYMLVWTRSQADAERLAAADAAVLRDELQQAFGERQGRILSIGPRASFPLALRQANRVTSGRVALIGNAAQTMHPVAAQGLNLGLRDAVGLADALENAADAGDARALKRYADSRKLDSHAVVGFTHGLIKLFDGHHPLMSRLRGVGMTALDALPSLRRKFAGHLVFGVRGLEHHHHHH | soluble
8 | ISEFDYSARFVLSDGKRKILRYPNPTNSLSSDVYYNGQILGDIWGYKTVGIAQTQEEMNAHLANGGTPNWGTNWGAGDVMYANLDGKEGVNNGSNTLEDHGDLTIIGNNTPRYNFGLTLTGAWKGFDFSVFLQGVMKRDYWLDGPYFWGANGGLWQSTAFKEHMDYWRPEGDPLGANTNAYYPKPYFNTDKNQKVQSGYLQNAAYCRLKNAQIGYTLPKTWTRKAAMESVRVYVSGDNLVTFSGISGVFDPELLGSDWGDGKLYPLQRTISIGLNVNF | not soluble
9 | MIRFCLQCLKTKKACICEWITPITTDIELIILQHPTEAKRPLGTAKILSLSLVNCRTFIGENFSEHSELNQLLADDSYHHQVLFLDNESKAIGTDKALLQKKQRVILLDGTWKKAYKMWQLSTNLHSLPKVHLNTDLSGNYRVRKAPKDNALSTAEAGYHILTQLDNDCVASNNVEKFDSILTAFDNMIEFHISQMPEGVFEKNYRSLEHHHHHH | soluble
10 | MSLSGFNYEKNQPHQMRAVSAVLGVFDGATPKYRTADENPELLFAAKQYANNILKVQSQNGIDGRFPDRSDDQNILDISMETGTGKTYTYTQTMFELHRWLGVFKFIVVVPTLSIKAGTQQFLQSKALAEHFEQDFGGDYEGVRLKTYVVESAKKNKGKKSNAPITIEQFVKAENKKEIHVLLINAGMVNSSSMNDTGDKALKDLFDNPVDALAAVRPFMIVDEPHKFPTRDSAKTWGNIKRLKPQYILRYGATFNDEYYNLLYRLTAVDAFNDGLVKGVRVFQEEMQGGMDAAVKLVSSDGKEAKFELNEKDKKQTFKLAKGEDLAQIHPAISDLKIDKMNKTVVVLSNGLELKTGAVINPYSYSQTVQDAMMQRAVAEHFKLERALLAERAPQPKIKPLTLFFIDDIAGYRSGNELSGSLKDKFESWIRAEAARRLKTESDPFYRDYLQKTLDDVSACHGGYFSKDNTDSDDRIEQEINEILHDKEKLLSLDNPRRFIFSKWTLREGWDNPNVFQICKLRSSGSTTSKLQEVGRGLRLPVNELMARVRDVPYKLNYFVDSSEKDFVKQLVGEINDNSFQEEISKKFTEELKQKILQKYPDIKPLVLVNQLFLDGIIDDNENFAEDGYDKLKAAYPEAFPKGLDKGKVSNAKDEGKDTIIMREGKYEELKALWELIHHKAVLQYKIKDEAEFADLFTAYLHENAAKFPQAGIRTAVNEAYINNGLMLSRRIDSFEDEDFIRFNTMTYREFLEKLAQTAKIRMQTLHQAFYCIRNELNIGDFLNMQTIAQIKNGFNRFLLHHSFHKFELDYRLVGSKIHPTKFTNKDGKPRAVKKADLGRFEDTEHRPAAGYLFGEIFYDSDIEHENVANNQIEGVIVFTKIPRNSIKIPVAGGGTYSPDFAYIVKTKSGEILNFVIEAKGTDGAEDLRKSEERKIKHAEKLFAEISKEIKVVFKTQFDGERIAELIGQNMPAGGHSENGREGHHHHHH | not soluble
11 | MSLQTFVIVGHVIPNNDMSPTLNKGDRVIVNKIKVTFNQLNNGDIITYRRGNEIYTSRIIAKPGQSMAFRQGQLYRDDRPVDASYAKNRKIKDFSLRNFKELDGDIIPPNNFVVLNDHDNNQHDSRQFGLIDKKDIIGNISLRYYPFSKWTIQFKSEGHHHHHH | soluble
12 | MFQRLFGRERHANRAITDALYAQIVAAARQTVFYSHWNVPDTPLGRFEMLSLHMFLFQHRLRGEGGVAQEIAQVLIDEFFLDVDHSLRELGIGDVGVPKRMKKLAKMFYGRTAAYDDALDRNDRDGLTAALARNVRPDAGTWPEAPQLADYVADACRQLAAQPSQSIVSGTAVFPLAKGGALEHHHHHH | not soluble
13 | MNIGNITISVIIPVYNASVTLPHCLESLHKQTYRNLELLFVDDCSTDESLYILTSYAEQFAEIDFTIRILQHERNRGVAAARNTALKCATGDYIYYVDADDSIEPHTLECLVNEINHKGLDIVGHEWYLTFNSNARYMKQPAYTTSVEALRKMMGGVMRWNLWLFLVRRSLYVENDIRFTEGLNMGEDMMVMMKLFICAGKVGIVHRPFYHYRQSNPESLTKIYSQEHIIQVANNVYEVEKYVNASAYADSLIEFIPFLKLNIKLPLLITDDKSHYEQWLECFPEANCYVMNNKLLPLRTRIIQWMAVKRYFILLRLYYRTVFKLVYGIIYKLEHHHHHH | not soluble
14 | GRYEIRFSGAGGQGLILAGVIMAEAASIYDGKQAVQSQSYGPEARGGASKSEVIISDGPVDYPKATQCDALLALTQEACDKYSADLKEGGVLLVDSDLVTKLPPGNYQTTAFNIINTAKNDVGREIVANIVALGAMVALTGVVSKEAAEKAVLSRVPEAFVELNRKAFQMGFEKAL | not soluble
